Measured values from US20100285027A1 (CENTRE NATIONAL DE LA RECHERCHE SCIENTIFIQUE, published 2010).

Columns and labels:
[1] = molecular target: T1, irrelevant peptide PELAPVSSNLKYTLDC; assay: ELISA on coated irrelevant peptide, anti-mouse peroxidase, ABTS, read at 405 nm
T1 construct: Negative control in the ELISA; also called control peptide
T1 peptide: PELAPVSSNLKYTLDC
Method: The hepcidin binding properties of AN-LP1 produced by hybridoma CNCM I-3794 were tested by ELISA. Synthetic human hepcidin-25 was coated on 96-well boxes, with a concentration of 1-10 microgram/ml in 100 mM carbonate buffer, pH 9.5. One part of the wells is coated with an irrelevant peptide ([…], SEQ ID NO: 10) to be able to determine the specific component of measured signal. After one night of contact, the wells are washed 3 times with a solution of PBS/0.05% tween 20, then saturated with a solution of 0.1M Tris 20%, sucrose pH 7.8. The mouse serums are added in duplicates, with 10-fold serial dilutions. After a 6 h incubation, the wells were washed three times with a solution of PBS 0.05%, tween 20 and an anti-mouse antibody coupled with peroxidase (Biosource) diluted to 1/5,000 in PBS, 0.1% BSA, 0.01% Tween 20 was added for an additional 1 h30-2 h.

synthetic mouse hepcidin = molecular target: T2, synthetic mouse hepcidin (mouse, UniProt Q9EQ21 59-83); assay: dot blot on nitrocellulose, antibody 1:200, HRP secondary antibody, ECL
T2 construct: mature; also called murine hepcidin-25
T2 peptide (looked up): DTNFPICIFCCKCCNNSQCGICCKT
Method: Samples of synthetic human hepcidin (100 to 500 ng) or synthetic mouse) hepcidin (500 ng) (Peptide International, Louisville, Ky., USA), or of […] sera from a patient with an inflammatory disease, or from a healthy volunteer, were used. In one experiment, one sample of synthetic human hepcidin (500 ng) was treated with Laemmli buffer. The samples were directly spotted onto the nitrocellulose membrane and allowed to dry overnight. Non-specific sites were blocked by soaking the membrane in 5% skim milk in TBS-T (1 hr, at room temperature).
The primary antibodies (AN-LP1 antibody, or irrelevant antibody HPC4 directed against the epitope […] (SEQ ID NO: 11) of human protein C) were added at a dilution of 1:200 from a solution at 6 mg/ml. Incubation was performed for 2 h at room temperature or overnight at +4° C.
After 3 washes with TBS-T, the membranes were incubated with the secondary antibody conjugated with horseradish peroxidase (1:5000) for 1 h at room temperature.

[2] = molecular target: T3, synthetic human hepcidin-25 (human); assay: SPR (BIAcore 2000), AN-LP1 immobilized on a CM5 chip, hepcidin 0.39 nM to 12.5 nM as analyte
T3 construct: Synthetic peptide (Peptide International for the blots); Serum hepcidin and liver hepcidin detected by AN-LP1 are written under this molecule
T3 peptide: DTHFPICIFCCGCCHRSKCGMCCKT
Method: To estimate AN-LP1 affinity constant and the antibody-antigen interactions, surface plasmon resonance (SPR) measurements were performed with a BIAcore 2000 instrument using carboxymethylated dextran CM5 chips (BIAcore, Piscataway, N.J.). AN-LP1 mAb, dilued at 2 μg/ml in 5 mM maleate buffer (pH 5.75), was immobilized on the CM5 chips by amine coupling.
Hepcidin was diluted in running buffer HBS-EP (0.01M HEPES pH 7.4; 0.15M NaCl, 3 mM EDTA and 0.005% polysorbate 20). Analyte was injected in 3 min, 60 μL/min injections and dissociation was monitored during 10 min. Surface Ab were generated by a 30-s to 1-min injection of glycine-HCL 10 mM pH 2. Kinetic rate constants were determined with purified antibodies. Concentrated hepcidin (0.39 nM to 12.5 nM) were injected over the chip surface at a rate of 60 μL/min to collect binding data. Data analyses were carried out with the BIAevaluation 3.0 software.

B1: monoclonal antibody AN-LP1 produced by the hybridoma CNCM I-3794 (antibody, V domains shown)
VH: EVQLEESGGGLVQPGGSLKLSCAASGFTFSRYSMSWVRQTPEKRLEWVAYISDGGGSTYSPDTVKGRFSISRDNAQNTLYLQMSSLKSEDTAIFYCVRHARLEGYFDVWGAGTSVTVSS
VL: DVLTQSPASVAVSLGQRATISCRASESVDNYGNSFMNWYQQKPGQPPKLLIYRASNLESGIPARFSGSGSRTDFTLTINPVEADDVATYYCQQSNEDPTFGGGTKLEIKR
notes: also called AN-LP1 mAb; mAb AN-LP1
binding result [1]: no binding
binding result (synthetic mouse hepcidin): no binding (tested: 500 ng)
Kd [2]: 0.099 nM
